Results reported in patent US20070298412A1 (ZAKRYTOE AKTSIONERNOE OBSCHESTVO EVROGEN, published 2007).
Substitutions are numbered along the chain they refer to. Numbers in names are those of the source.

B1: S3-2 red fluorescent mutant of hm2CP (other)
chain: MEGGPALFQSDMTFKIFIDGVVNGQKFTIVADGSSKFPHGDFNVHAVCETGKLPMSWKPICHLIQYGEPFFARYPNGISHFAQECFPEGLSIDRTVRFENDGTMTSHHTYELDGTCVVSRITVNCDGFQPDGPIMRDQLVDILPNETHMFPHGPNAVRQLAFIGFTTADGGLMMSHFDSKMTFNGSRAIKIPGPHFVTTITKQMKDTSDKRDHVCQREVTYAHSVPRITSAI
notes: No tag is stated for the gel-filtration sample; also called S3-2 red fluorescent protein
B2: phiYFP, yellow fluorescent protein from Phialidium sp. (wild type) (other)
chain: MSSGALLFHGKIPYVVEMEGNVDGHTFSIRGKGYGDASVGKVDAQFICTTGDVPVPWSTLVTTLTYGAQCFAKYGPELKDFYKSCMPEGYVQERTITFEGDGVFKTRAEVTFENGSVYNRVKLNGQGFKKDGHVLGKNLEFNFTPHCLYIWGDQANHGLKSAFKIMHEITGSKEDFIVADHTQMNTPIGGGPVHVPEYHHITYHVTLSKDVTDHRDNMSLVETVRAVDCRKTYL
notes: Recombinant protein from the whole coding region, expressed in E. coli and purified on TALON; Found to be a homodimer by gel electrophoresis of non-heated samples and by gel filtration; not shown: N-terminal six-histidine tag from the pQE30 vector
B3: phiYFP-Y1 (phiYFP mutant with S2P, E174G, I201M) (other)
chain: B2 chain with S2P, E174G, I201M
notes: Found to be a homodimer
B4: phiYFP-M1 (phiYFP mutant with E88D, V103N, M166C, E174G, I201M, T202S, T206K, V221K) (other)
chain: B2 chain with E88D, V103N, M166C, E174G, I201M, T202S, T206K, V221K
notes: No tag is stated for the gel-filtration sample
B5: phiYFP-M0 (phiYFP mutant with S2P, V103N, M166R, E174G, Y198N, I201M, T202S, T206K, V221K) (other)
chain: B2 chain with S2P, V103N, M166R, E174G, Y198N, I201M, T202S, T206K, V221K
notes: No tag is stated for the tested sample

Assays:
[1] = target: the molecule itself; assay: gel filtration (self-association)
[2] = target: the molecule itself; assay: gel electrophoresis of non-heated samples and gel filtration on Sephadex-100 (homodimer)
Procedure: Under these conditions these FPs migrated as yellow fluorescent band at about 50 kDa. […] Purified protein samples (˜1 mg/ml) were loaded onto a Sephadex-100 column (0.7×60 cm) and eluted with a solution of 50 mM phosphate buffer (pH 7.0) and 100 mM NaCl. EGFP, HcRed1 and DsRed2 (Clontech) were used as monomer, dimer and tetramer standards, respectively.

| Protein | binding result [1] | binding result [2] |
| --- | --- | --- |
| B1 | no binding | – |
| B2 | – | binds |
| B3 | – | binds |
| B4 | no binding | – |
| B5 | no binding | – |
